The text below walks through data of patent US5981483A, “Compositions comprising modulators of cytokines of the TGF-β superfamily” (Mount Sinai Hospital Corporation, priority 1997, dated 1999).

Where a SMILES comes first, the peptide text is derived from it. Bridges are numbered along the chain shown (N, C = ends). The star is where a group is joined. Cam = NC(=O)C*

The target of assay [1] is T1, TGF-β1 (Homo sapiens, UniProt P01137).
T1 construct: The mature processed cytokines produced from the members of the gene family show almost 100% amino acid identity between species; purchased Collaborative Research (Bedford, Mass.)
T1 sequence (P01137 279-390 limits assumed): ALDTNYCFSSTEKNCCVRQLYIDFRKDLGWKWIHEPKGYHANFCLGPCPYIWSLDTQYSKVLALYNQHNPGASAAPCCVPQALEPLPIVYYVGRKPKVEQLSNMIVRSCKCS
Put plainly: BIAcore surface plasmon resonance, binding to immobilized TGF-β1. The following applies: for kass: ligand TGF-β1. Here is the method:
(§1) In this system, a purified protein serving as the ligand is covalently coupled to a carboxymethylated dextran surface, and binding molecules (i.e. the analyte) are passed in a fluid phase across the surface. Binding of the analyte to ligand causes a change in reflected light which is directly proportional to mass bound, and is measured in arbitrary response units (R.U.). Analyte-ligand binding is observed as both increasing response with time during the injection of analyte, and the difference in the position of the baseline before and after injection.
(§2) Schuster, R. V. Swanson, L. A. Alex, R. B. Bourret, M. I. Simon, Nature 365, 343 (1993). 1000 R.U. equals approximately 1 ng/mm^2. The running buffer was 20 mM Hepes (pH 7.2), 150 mM NaCl and the flow rate for all sensorgrams was 3 μl/min.
(§3) Regeneration of the surface to remove bound analyte was done by injection of 10 μl of 20 mM NaOH. To cyclize TRH1 peptides, the material was reduced with 5 mM DTT then brought to a final concentration of 60 μM in 25 mM ammonium acetate (pH 8.5). After stirring in the dark for 30 min at 20° C. with 30 mM potassium ferricyanide, the peptide was mixed with AG3-X4A resin (BioRad), filtered, lyophilization and desalted on a 50×2.5 cm column of Biogel P2 (Pharmacia) developed in water, and further purified by reverse phase HPLC.
(§4) Injection volumes were 36 μl for FIG. 2, 4 and 5 and 45 μl for FIG. 3. […] Protein concentrations in each experiment were (FIGS. 2 and 3), 2, 5, 10, 20, 30, 40 μM; (FIG. 4), 0.21, 0.31, 0.41, 0.62, 0.82, 1.24 μM; (FIG. 5), 0.22, 0.29, 0.44, 0.59, 0.88 μM. R.U. for the immobilized cytokine in each experiment was 2850 R.U. for FIGS. 2 and 3; 7450 R.U. for FIG. 4, and 5300 R.U., for FIG. 5 respectively.
(§5) Data was analyzed using the BIA-evaluation software (Pharmacia Biosensor). The association rate constant, kass, was calculated by first plotting the change in response with time versus response (i.e. dR/dT vs R). When the slope of the line from this graph is plotted versus analyte concentration (i.e d(dR/dT)/dR vs C), kass is obtained from the slope of the line. The dissociation rate constant, kdiss, is obtained during the decrease in response with time after analyte injection is discontinued. Specifically, kdiss was obtained from the slope of the line in a plot of ln(Rt1 /Rtn) vs time. The affinity constants were calculated from KD =kdiss /kass. Variance for kass is standard error of the linear regression plot, and for kdiss values are the mean ± range of 3 or more independent injections.

For assay [2], the system named is rat bone marrow stromal cells. The experiment in a line: Dexamethasone-treated rat bone marrow stromal cell cultures (proliferation, mineralization, TGF-β levels). It is filed as cell-based. The following applies: dexamethasone 10^-8 M, FIG. 17. The procedure:
The methods used in the studies described in this example and illustrated in FIGS. 16 and 17 are as follows. Femoral bones were removed under aseptic conditions from adult male Wistar rats (120 g), cleaned of adherent soft tissues, and washed extensively in antibiotics. The distal ends were removed and the marrow contents were flushed out with 10 ml of culture medium. The cells were dispersed by repeated passage through a 20 gauge needle and incubated in alpha-MEM supplemented with 15% fetal bovine serum, ascorbic acid (50 μg/ml), antibiotics (penicillin G 100 μg/ml, gentamicin 50 μg/ml, fungizone 0.3 μg/ml) and 10 mM β-glycerophosphate. […] Following 6 days of culture at 37° C. in a humidified atmosphere containing 5% CO2 in air, the cells were re-plated at a density of 1×10^2 cell/mm^2 in 96 multi-well plates (Falcon 3047), and grown for another 12-14 days. At the end of culture, the cells were fixed and stained for calcium with alizarin red-s for quantification of bone nodule area (reported as mineralized area (mm^2)/well). To assess mineralized tissue formation in the cultures morphometric measurements were carried out with the aid of a Bioquant IV system (Bioquant, Nashville, Tenn., U.S.A.) using a Leitz Orthoplan microscope. TGF-β in culture supernatants taken 4 days prior to scoring mineralization were measured with and without heat activation (80° C. for 10 min) using the Mink cells as the indicator cell line as described in FIG. 12.

In assay [3] the target is T1, TGF-β1. Put plainly: 3H-Thymidine incorporation in Mv1Lu cells: neutralization of the antiproliferative activity of TGF-β1. It is filed as cell-based. The procedure:
Mv1Lu cells were seeded at 20,000 cells/well in a 96 well plate containing 0.2% FCS in α-MEM and incubated with the indicated concentrations of proteins for 18 hr. The cells were then pulsed with 8 μCi/ml methyl-^3 H-thymidine (NEN, Boston, Mass.) for 6 hr. Cells were trypsinized, harvested onto filtermats and counted in a β-Counter. Percent neutralization is defined as incorporation in the presence of 12 pM TGF-β1 alone set at 0%, and incorporation without additions as 100%. The difference in ^3 H-thymidine incorporation between 0% and 100% was 7.5 fold. Each point in FIG. 1 and FIG. 12 represents the mean of duplicate determinations, and the results are representative of three experiments. […] Before use, bovine thyroglobulin was spun twice in a centricon (M.W. cutoff of 10,000 Da) micro-concentrator (Amicon, Beverly, Mass.) to remove any excess Iodine and T3/T4 thyroid hormones.
Background: Incorporation of labelled thymidine or its analogues reports DNA synthesis.

The target of assay [4] is T2, BMP-2 (Homo sapiens, UniProt P12643).
T2 construct: Genetics Institute, Cambridge, Mass; (gift)
T2 sequence (P12643 283-396): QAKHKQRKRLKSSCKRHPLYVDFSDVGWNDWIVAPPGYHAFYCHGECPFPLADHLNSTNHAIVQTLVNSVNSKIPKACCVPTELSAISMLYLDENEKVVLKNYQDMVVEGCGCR
The experiment in a line: BIAcore surface plasmon resonance, binding to immobilized BMP-2. The following applies: for kass: ligand BMP-2. The procedure: as §1, §2, §3, §4, §5

Assay [5] has as its target T3, BMP-4 (Homo sapiens, UniProt P12644).
T3 sequence (P12644 293-408): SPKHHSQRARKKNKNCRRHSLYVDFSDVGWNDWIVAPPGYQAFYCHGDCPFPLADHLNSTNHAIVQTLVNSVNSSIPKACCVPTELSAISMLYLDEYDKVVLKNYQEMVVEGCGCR
The experiment in a line: BIAcore surface plasmon resonance, binding to immobilized BMP-4. The following applies: Table 1; ligand BMP-4. The procedure:
as §1, §2
Regeneration of the surface to remove bound analyte was done by injection of 10 μl of 20 mM NaOH. To cyclize TRH1 peptides, the material was reduced with 5 mM DTT then brought to a final concentration of 60 μM in 25 mM ammonium acetate (pH 8.5). […]
Data was analyzed using the BIA-evaluation software (Pharmacia Biosensor). The association rate constant, kass, was calculated by first plotting the change in response with time versus response (i.e. dR/dT vs R). […] The affinity constants were calculated from KD =kdiss /kass. […]
(SPR reads the build-up and loss of mass on a sensor chip optically.)

In assay [6] the target is T4, TGF-β2 (Homo sapiens, UniProt P61812).
T4 construct: The mature processed cytokines produced from the members of the gene family show almost 100% amino acid identity between species
T4 sequence (P61812 303-414 limits assumed): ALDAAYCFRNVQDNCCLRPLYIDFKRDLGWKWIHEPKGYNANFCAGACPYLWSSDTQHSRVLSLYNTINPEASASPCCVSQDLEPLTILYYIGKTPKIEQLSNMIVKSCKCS
The experiment in a line: BIAcore surface plasmon resonance, binding to immobilized TGF-β2. The following applies: Table 1; ligand TGF-β2. The procedure:
as §1, §2, §3
as §5, with “Variance for kass is standard error of the linear regression plot, and for kdiss values are the mean ± range of 3 or more independent injections.” left out

In assay [7] the target is T5, TGF-β1 binding to TβRII (Homo sapiens, UniProt P01137).
T5 construct: The mature processed cytokines produced from the members of the gene family show almost 100% amino acid identity between species; purchased R&D Systems
T5 sequence (P01137 279-390 limits assumed): as the sequence (P01137 279-390 limits assumed) above
The experiment in a line: Competition of TGF-β1 binding to immobilized TβRII (Quantikine ELISA). The following applies: 40 pM TGF-β1; fetuin 40 μM, TRH1 peptide from TβRII 20 μM; FIG. 14. Here is the method: Inhibition of TGF-β1 binding to TβRII was carried out using the Quantikine ELISA kit (R&D Systems). In particular, 96 well plates were pre-coated with the extracellular domain of TβRII. […] This was followed by a 5 minute incubation with the TβRII coated ELISA wells with shaking, washing as recommended, and a 1 hr incubation with the polyclonal anti-TGF-β1 antibody. Plates were developed as per the instructions, and determinations were made in triplicate.
Background: ELISA stands for enzyme-linked immunosorbent assay.

Where [8] appears, read: Table 2 (calculations repeated).

As to “human transferrin: non-binding control protein [reference compound]”, the “binding to immobilized TGF-β1 (in words)” value in assay [1] is “non-binding”.

`C[C@@H]1C[C@H]2[C@@H]3CCC4=CC(=O)C=C[C@]4(C)[C@@]3(F)[C@@H](O)C[C@]2(C)[C@@]1(O)C(=O)CO` [Dexamethasone, dexamethasone, reference compound]: the “increase of the fraction of active TGF-β in the cultures” value in assay [2] is 3 fold.

“Thyroglobulin: Bovine thyroglobulin (Sigma), contains the TRH1 domain”: in assay [3] (12 pM TGF-β1, FIG. 1), the “Maximal effect, percent neutralization” value is on record as “approximately 150%”. In assay [3] (FIG. 1), the “IC50 for inhibition of TGF-β1 activity, fold lower than for fetuin” value is 20 fold. The kass in assay [4] (Table 1) came to 32000 ± 2000 M⁻¹ s⁻¹; in assay [5], 54000 ± 7000 M⁻¹ s⁻¹; in assay [6], 1300 ± 600 M⁻¹ s⁻¹.

For `CC[C@H](C)[C@@H]1NC(=O)[C@H](CC(=O)O)NC(=O)[C@@H](N)CSSC[C@@H](C(=O)O)NC(=O)[C@H](CCCCN)NC(=O)[C@H]([C@@H](C)O)NC(=O)[C@H](Cc2ccccc2)NC(=O)[C@H](CC(C)C)NC(=O)[C@H](C(C)C)NC(=O)[C@H](CO)NC(=O)[C@H](Cc2ccccc2)NC(=O)[C@H](CCC(N)=O)NC(=O)CNC(=O)[C@H](CC(=O)O)NC(=O)[C@H](CCC(N)=O)NC(=O)[C@H](CCCCN)NC(=O)[C@H](CC(C)C)NC(=O)[C@H](C(C)C)NC(=O)[C@H](Cc2c[nH]cn2)NC1=O` [TRH1b (fetuin)] (H-CDIHVLKQDGQFSVLFTKC-OH; disulfide 1-19; N-terminus and C-terminus assumed), the kass in assay [4] (setting [8]) is 1300 ± 500 M⁻¹ s⁻¹. Besides, the “Competition of fetuin-BMP-2 binding” value in assay [4] (co-injected with fetuin, data not shown, listed as fetuin TRH1b peptide) is recorded as “competed for fetuin-BMP-2 binding in a dose dependent manner”.

With “reduced and alkylated fetuin: fetuin, reduced and alkylated”, the “binding to immobilized BMP-2 (in words)” value in assay [4] is reported as “diminished binding”. Further, the “binding to immobilized TGF-β1 (in words)” value in assay [1] is recorded as “diminished binding”.

`CC[C@H](C)[C@@H]1NC(=O)[C@H](CC(N)=O)NC(=O)[C@H](CCC(=O)O)NC(=O)[C@H](CC(=O)O)NC(=O)[C@H](CC(N)=O)NC(=O)[C@H](CCCCN)NC(=O)[C@H](CCCNC(=N)N)NC(=O)[C@H](Cc2c[nH]c3ccccc23)NC(=O)[C@H](C(C)C)NC(=O)[C@H](C)NC(=O)[C@H](C(C)C)NC(=O)[C@@H](N)CSSC[C@@H](C(=O)O)NC(=O)[C@H](C(C)C)NC(=O)[C@H]([C@@H](C)O)NC(=O)[C@H](CCC(=O)O)NC(=O)[C@H](CC(C)C)NC(=O)[C@H]([C@@H](C)O)NC1=O` [TRH1b (TβRII)]: the “inhibition of TGF-β1 binding to immobilized recombinant TβRII” value in assay [7] was “competitive inhibitors”. The kass is 3700 ± 2900 M⁻¹ s⁻¹ in assay [1] (Table 1) and 2200 ± 1300 M⁻¹ s⁻¹ in assay [1] (setting [8]).

As for `CC[C@H](C)[C@H](NC(=O)[C@H](CC(=O)O)NC(=O)[C@@H](N)CSCC(N)=O)C(=O)N[C@@H](Cc1c[nH]cn1)C(=O)N[C@H](C(=O)N[C@@H](CC(C)C)C(=O)N[C@@H](CCCCN)C(=O)N[C@@H](CCC(N)=O)C(=O)N[C@@H](CC(=O)O)C(=O)NCC(=O)N[C@@H](CCC(N)=O)C(=O)N[C@@H](Cc1ccccc1)C(=O)N[C@@H](CO)C(=O)N[C@H](C(=O)N[C@@H](CC(C)C)C(=O)N[C@@H](Cc1ccccc1)C(=O)N[C@H](C(=O)N[C@@H](CCCCN)C(=O)N[C@@H](CSCC(N)=O)C(=O)O)[C@@H](C)O)C(C)C)C(C)C` [TRH1b (fetuin) (reduced & alkylated)] (H-C(Cam)DIHVLKQDGQFSVLFTKC(Cam)-OH; N-terminus and C-terminus assumed), the “binding to immobilized BMP-2 (in words)” value in assay [4] is “no significant binding”.
